The results in this text go back to US20220153822A1 (ALYTAS THERAPEUTICS, published 2022).

Changes are numbered by the printed parent chain.

T1: Perilipin epitope 6 peptide EVRVPWLHSLAAAQE (SEQ ID NO. 333) (human, Biotin-PEG Spacer and GGSGGS Linker (SEQ ID NO. 438) at the N-terminus, or Biotin-PEG Spacer and AAAAA Linker (SEQ ID NO. 439) at the C-terminus)
T1 construct: Two biotinylated variants were used for selection and ELISA; On the peptide array it stood without biotin; also called target peptide
T1 peptide: EVRVPWLHSLAAAQE

T2: Perilipin epitope 5 peptide AKPSLLSRVGALTNT (SEQ ID NO. 332) (human, Biotin-PEG Spacer and GGSGGS Linker (SEQ ID NO. 438) at the N-terminus, or Biotin-PEG Spacer and AAAAA Linker (SEQ ID NO. 439) at the C-terminus)
T2 construct: Two biotinylated variants were used for selection and ELISA; On the peptide array it stood without biotin; also called target peptide
T2 peptide: AKPSLLSRVGALTNT

B1: Antibody No. 40 (antibody, V domains shown)
VH: EVQLLESGGGLVKPGGSLRLSCAASGFTFSDYYMSWIRQAPGKGLEWVSYISSSSSYTNYADSVKGRFTISRDNAKNSLYLQMNSLRAEDTAVYYCARLSTVTRAFDIWGQGTMVTVSS
VL: DIQLTQSPSSVSASVGDRVTITCRASQGISSWLAWYQQKPGKAPKLLIYAASSLQSGVPSRFSGSGSGTDFTLTISSLQPEDFATYYCQQANSFPPTFGQGTKLEIK
notes: human IgG1, lambda or kappa light chain; also called 447-F11
B2: Antibody No. 49 (antibody, V domains shown)
VH: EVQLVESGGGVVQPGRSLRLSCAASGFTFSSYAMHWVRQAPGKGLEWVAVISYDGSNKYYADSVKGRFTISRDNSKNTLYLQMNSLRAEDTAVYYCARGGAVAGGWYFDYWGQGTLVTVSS
VL: B1 VL with Q3V, L4M
notes: human IgG1, lambda or kappa light chain; also called 448-H04
B3: Antibody No. 57 (antibody, V domains shown)
VH: QVQLVESGAEVKKPGASVKVSCKASGYTFTSYYMHWVRQAPGQGLEWMGIINPSGGSTSYAQKFQGRVTMTRDTSTSTVYMELSSLRSEDTAVYYCARMTTSLGFDYWGQGTLVTVSS
VL: B1 VL with R18K, S31N, Q38L, I48V, S77N, F94L, P96L, Q100G, K103R
notes: human IgG1, lambda or kappa light chain; also called 447-H10
B4: Antibody No. 52 (antibody, V domains shown)
VH: QVQLVQSGAEVKKPGASVKVSCKASGYTFTSYGISWVRQAPGQGLEWMGWISAYNGNTNYAQKLQGRVTMTTDTSTSTAYMELRSLRSDDTAVYYCASWGVVGGMDVWGQGTLVTVSS
VL: B1 VL with L4M, P96L, Q100G, L104V, E105D
notes: human IgG1, lambda or kappa light chain; also called 448-F05
B5: Antibody No. 53 (antibody, V domains shown)
VH: QVQLVQSGGGVVQPGRSLRLSCAASGFTFSSYGMHWVRQAPGKGLEWVAVISYDGSNKYYADSVKGRFTISRDNSKNTLYLQMNSLRAEDTAVYYCAKDFSDAFDIWGQGTMVTVSS
VL: QSVLTQPPSVSAAPGQKVTISCSGSSSNIGNNYVSWYQQLPGTAPKLLIYDNNKRPSGIPDRFSGSKSGTSATLGITGLQTGDEADYYCGTWDSSLSAVVFGGGTKVTVL
notes: human IgG1, lambda or kappa light chain; also called 447-G07
B6: Antibody No. 54 (antibody, V domains shown)
VH: B5 VH with Q1E, V5L, Q6E, D99G, F100S, S101G, D102W, A103Y, I106Y, M112L
VL: not shown
notes: human IgG1, lambda or kappa light chain; also called 447-C12
B7: Antibody No. 30 (antibody, V domains shown)
VH: EVQLVQSGGGLVQPGGSLRLSCAASGFTFSSYAMSWVRQAPGKGLEWVSAISGSGGSTYYADSVKGRFTISRDNAKNSLYLQMNSLRAEDTAVYYCARVRVSDGRFDYWGQGTLVTVSS
VL: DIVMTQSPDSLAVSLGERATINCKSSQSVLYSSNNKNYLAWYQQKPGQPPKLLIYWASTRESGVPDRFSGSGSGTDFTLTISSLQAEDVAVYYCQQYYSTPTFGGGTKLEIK
notes: human IgG1, lambda or kappa light chain; also called 448-E04
B8: Antibody No. 46 (antibody, V domains shown)
VH: QVQLVQSGGGVVQPGRSLRLSCAASGFTFSSYAMHWVRQAPGKGLEWVAVISYDGSNKYYADSVKGRFTISRDNSKNTLYLQMNSLRAEDTAVYYCARDQYDILTGYGGTALDYWGQGTLVTVSS
VL: QSALTQPPSASGSPGQSVTISCTGTSSDVGGYNYVSWYQQHPGEAPKLMIYEVSKRPSGVPDRFSGSKSGNTASLTVSGLQAEDEADYYCSSYAGSNNLVFGGGTKLTVL
notes: human IgG1, lambda or kappa light chain; also called 447-B07
B9: Antibody No. 31 (antibody, V domains shown)
VH: EVQLLESGGGVVQPGRSLRLSCAASGFTFSSYAMHWVRQAPGKGLEWVAVISYDGSNKYYADSVKGRFTISRDNSKNTVSLQMSSLRADDTAIYYCVKDTILIDWGQGTLVTVSS
VL: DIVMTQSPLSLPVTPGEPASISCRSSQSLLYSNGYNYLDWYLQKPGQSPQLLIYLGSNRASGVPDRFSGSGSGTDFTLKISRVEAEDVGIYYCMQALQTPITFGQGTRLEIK
notes: human IgG1, lambda or kappa light chain; also called 448-E06
B10: Antibody No. 55 (antibody, V domains shown)
VH: QVQLVQSGAEVKKPGASVKVSCKASGYTFTSYYMHWVRQAPGQGLEWMGIINPSGGSTSYAQKFQGRVTMTRDTSTSTVYMELSSLRSEDTAVYYCARDDYGDYWGQGTLVTVSS
VL: QSALTQPASVSGSPGQSITIPCTGTSSDVGGYNYVSWYQQHPGKAPKLMIYEVSNRPSGVSNRFSGSKSGNTASLTISGLQAEDEADYYCSSYTSSSFSFGTGTKLTVL
notes: human IgG1, lambda or kappa light chain; also called 447-C08
B11: Antibody No. 23 (antibody, V domains shown)
VH: QVQLVQSGGGLVQPGRSLRLSCAASGFTFDDYAMHWVRQAPGKGLEWVSGISWNSGSIGYADSVKGRFTISRDNAKNSLYLQMNSLRAEDTALYYCAKDIAGGDYPVFDYWGQGTLVTVSS
VL: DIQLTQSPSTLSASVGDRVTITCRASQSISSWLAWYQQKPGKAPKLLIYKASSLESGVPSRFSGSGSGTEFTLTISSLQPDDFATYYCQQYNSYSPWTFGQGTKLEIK
notes: human IgG1, lambda or kappa light chain; also called 435-B08
B12: Antibody No. 39 (antibody, V domains shown)
VH: QVQLVESGGGLVQPGRSLRLSCAASGFTFDDYAMHWVRQAPGKGLEWVSGISWNSGSIGYADSVKGRFTISRDNAKNSLYLQMNSLRAEDTALYYCAKDTTWGGSYPYFDYWGQGTLVTVSS
VL: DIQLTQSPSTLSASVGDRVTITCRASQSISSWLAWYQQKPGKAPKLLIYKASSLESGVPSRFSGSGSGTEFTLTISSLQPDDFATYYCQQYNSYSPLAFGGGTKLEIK
notes: human IgG1, lambda or kappa light chain; also called 448-H05
B13: Antibody No. 42 (antibody, V domains shown)
VH: QVQLVESGGGVVQPGRSLRLSCAASGFTFSNYAMHWVRQAPGKGLEWVAVISYDGSKKYYADSVKGRFTISRDNSKNTLYLQMNSLGAEDMAVYYCAREDPRRGGIDYWGQGTLVTVSS
VL: QSVLTQPPPVSGAPGQRVTISCTGSSSNIGAGYDVHWYQQLPGTAPKLLIYGNSNRPSGVPDRFSGSKSGTSASLAITGLQAEDEADYYCQSYDSSLSGYVFGTGTKVTVL
notes: human IgG1, lambda or kappa light chain; also called 447-B06
B14: Antibody No. 26 (antibody, V domains shown)
VH: EVQLLESGGGVVQPGRSLRLSCAASGFTFSSYAMHWVRQAPGKGLEWVAVISYDGSNKYYADSVKGRFTISRDNSKNTLYLQMNSLRAEDTAVYYCARELYYGPGGMDVWGQGTLVTVSS
VL: B13 VL with P9S, Y100S, T104G, V108L
notes: human IgG1, lambda or kappa light chain; also called 447-D06
B15: Antibody No. 48 (antibody, V domains shown)
VH: EVQLVQSGGGVVQPGRSLRLSCAASGFTFSSYAMHWVRQAPGKGLEWVAVISYDGSNKYYADSVKGRFTISRDNSKNTLYLQMNSLRAEDTAVYYCAAESAYSSSWSGLRFDPWGQGTLVTVSS
VL: B13 VL with P9S, V108L
notes: human IgG1, lambda or kappa light chain; also called 447-B08
B16: Antibody No. 47 (antibody, V domains shown)
VH: B5 VH with G33A, K98R, D99E, F100A, S101G, D102E, A103G, F104V, I106Y, M112L
VL: B13 VL with P9S, V108L
notes: human IgG1, lambda or kappa light chain; also called 447-A08
B17: Antibody No. 45 (antibody, V domains shown)
VH: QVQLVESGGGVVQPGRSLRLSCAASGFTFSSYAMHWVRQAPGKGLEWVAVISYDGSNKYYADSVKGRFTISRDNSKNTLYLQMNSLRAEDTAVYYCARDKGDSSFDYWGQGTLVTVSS
VL: B13 VL with P9S, Y100V, T104G
notes: human IgG1, lambda or kappa light chain; also called 447-E08
B18: Antibody No. 24 (antibody, V domains shown)
VH: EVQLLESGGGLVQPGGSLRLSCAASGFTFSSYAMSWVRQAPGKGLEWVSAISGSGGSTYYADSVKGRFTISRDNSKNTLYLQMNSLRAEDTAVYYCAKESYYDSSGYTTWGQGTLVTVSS
VL: B13 VL with P9S, V108L
notes: human IgG1, lambda or kappa light chain; also called 447-C09
B19: Antibody No. 51 (antibody, V domains shown)
VH: QVQLQESGGGVVQPGRSLRLSCAASGFTFSSYAMHWVRQAPGKGLEWVAVISYDGSNKYYAGSVKGRFTISRDNSKNTLYLQMNSLRAEDTAVYYCARDWRGVYFDYWGQGTLVTVSS
VL: QSALTQPASVSGSPGQSITISCTGTSSDVGGYNYVSWYQQHPGKAPKLMIYEVSNRPSGVSNRFSGSKSGNTASLTISGLQAEDEADYYCSSYTSSSTLVFGGGTKLTVL
notes: human IgG1, lambda or kappa light chain; also called 447-E05
B20: Antibody No. 28 (antibody, V domains shown)
VH: B5 VH with G33A, K98R, F100S, S101G, D102V, A103V, F104M, I106Y, M112L
VL: B19 VL with E52D, L107V
notes: human IgG1, lambda or kappa light chain; also called 447-F08
B21: Antibody No. 43 (antibody, V domains shown)
V domain 1: QVQLVQSGAEVKKPGSSVKVSCKASGGTFSSYAISWVRQAPGQGLEWMGGIIPIFGTANYAQKSQGRVTITADESTSTAYMELSSLRSEDTAVYYCARESGSGNRIPYGMDVWGQGTMVTVSS
V domain 2: QSVLTQPPSVSGAPGQRVTISCTGSSSNIGAGYDVHWYQQLPGTAPKLLIYGNSNRPSGVPDRFSGSKSGTSASLAITGLQAEDEADYYCQSYDSSLSGPVVFGGGTQVTVL
notes: human IgG1, lambda or kappa light chain; also called 447-A07
B22: Antibody No. 41 (antibody, V domains shown)
VH: QVQLVQSGGGVVQPGRSQRLSCAASGFTFSNAWMSWVRQAPGKGLEWVSAISGSGGSTYYADSVKGRFTISRDNSKNTLYLQMNSLRAEDTAVYYCAANEGGDAFDIWGQGTMVTVSS
VL: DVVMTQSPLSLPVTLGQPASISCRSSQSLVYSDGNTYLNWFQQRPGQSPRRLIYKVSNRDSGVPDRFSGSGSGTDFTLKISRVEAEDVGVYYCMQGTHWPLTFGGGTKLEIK
notes: human IgG1, lambda or kappa light chain; also called 447-E10
B23: Antibody No. 13 (antibody, V domains shown)
VH: QVQLVQSGGGLVQPGRSLRLSCAASGFTFDDYAMHWVRQAPGKGLEWVSGISWNSGSIGYADSVKGRFTISRDNAKNSLYLQMNSLRAEDTALYYCAKEDGSYALDYWGQGTLVTVSS
VL: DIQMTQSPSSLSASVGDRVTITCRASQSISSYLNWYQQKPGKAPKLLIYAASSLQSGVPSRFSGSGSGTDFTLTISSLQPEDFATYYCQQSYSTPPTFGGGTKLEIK
notes: human IgG1, lambda or kappa light chain; also called 432-G09
B24: Antibody No. 34 (antibody, V domains shown)
VH: B23 VH with Q6E, D100G, S102D, Y103S, A104D, L105F
VL: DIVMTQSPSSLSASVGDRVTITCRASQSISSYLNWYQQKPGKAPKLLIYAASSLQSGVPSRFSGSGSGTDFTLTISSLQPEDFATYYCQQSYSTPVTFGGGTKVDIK
notes: human IgG1, lambda or kappa light chain; also called 447-B01
B25: Antibody No. 35 (antibody, V domains shown)
VH: QVQLVQSGAEVKKPGTTVKISCKVSGYSFTDYYMHWVQQAPGKGLEWMGLVDPEDGETLYAEKFQGRVTITVDTSTDTAYMELSSLRSEDTAVYYCAAEPQMVQGPSPPDYWGQGTLVTVSS
VL: B19 VL with N33S, E52D, V100L
notes: human IgG1, lambda or kappa light chain; also called 447-E03

One experiment concerns the target T1, Perilipin epitope 6 peptide …. In words: phage display selection and ELISA on biotinylated target peptide. (An ELISA detects its analyte on a solid surface through an enzyme-linked reagent.)
Turning to B1, the binding result is “binds”.
On the same count and under the same terms, then B2, with “binds”.
For B3, the binding result is given as “binds”.
On to B4, for which the binding result was “binds”.
Same read-out and setting: then B5, with “binds”; and B6, with “binds”; and B7, with “binds”.
Turning to B8, the binding result is given as “binds”.
For the molecule B9, the binding result is “binds”.
On the same count and under the same terms, to B10 belongs “binds”.
Still for that read-out and setting: to B11 belongs “binds”.
For B12, the binding result is given as “binds”.
Same read-out and setting: to B13 belongs “binds”; to B14, “binds”; to B15, “binds”.
Still for that read-out and setting: to B16 belongs “binds”; to B17, “binds”; to B18, “binds”.
On to B19, for which the binding result is listed as “binds”.
Turning to B20, the binding result was “binds”.
Same read-out and setting: to B21 belongs “binds”; to B22, “binds”.

The target of another experiment is T2, Perilipin epitope 5 peptide …. The description is as above.
With B23, the binding result was “binds”.
On the same count and under the same terms, then B24, with “binds”; and B25, with “binds”.
